We go through 30 molecules from patent publication US20250340637A1 (ABPRO, published 2025).

First the molecules themselves.
T1: CynoCD3E (cyno, UniProt Q95LI5 22-117, limits assumed)
T1 construct: Recombinant analyte in SPR and antigen in ELISA; The construct is not described; also called cynomolgus CD3 epsilon
T1 sequence (looked up): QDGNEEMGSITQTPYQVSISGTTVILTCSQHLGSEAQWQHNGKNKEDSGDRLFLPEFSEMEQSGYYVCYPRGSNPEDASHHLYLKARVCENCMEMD

B1: 32G4-V8 x huSP34-v5 (bispecific antibody, V domains shown)
VH: EVQLVESGGGLVQPGGSLKLSCAASGFTFNTYAMNWVRQAPGKGLEWVARIRSKYNNYATYYADSVKDRFTISRDDSKNTAYLQMNSLKTEDTAVYYCVRHGNFGNSYVSWFAYWGQGTLVTVSS
VL: QTVVTQEPSLTVSPGGTVTLTCRSSTGAVTTSNYANWVQQKPGQAFRGLIGGTNKRAPGVPARFSGSLLGGKAALTLSGVQPEDEAIYFCALWYSNLWVFGGGTKLEIK
notes: The name reads as 32G4-V8 arm x huSP34-v5 arm
B2: ABP100s.11.0 (antibody, V domains shown)
VH: B1 VH with V5L, K19R, A49S, D76N, A81L, K89R, T90A, V99A, R100K, L120T
VL: QAVVTQEPSLTVSPGGTVTLTCRSSTGAVTTSNYANWFQQKPGQAPRTLIYGTNKRAPWTPARFSGSLLGGKAALTLSGAQPEDEAEYYCALWYSNLWVFGGGTKLTVL
B3: ABP100s.11.5 (antibody, V domains shown)
VH: B1 VH with V5L, K19R, A49S, D76N, A81L, K89R, T90A, V99A, R100K, L120T
VL: B2 VL
B4: ABP100s.12.5 (antibody, V domains shown)
VH: EVQLLESGGGLVQPGGSLRLSCAASGFTFNTYAMNWVRQAPGKCLEWVSRIRSKYNNYATYYADSVKDRFTISRDNSKNTLYLQMNSLRAEDTAVYYCAKHGNFGNSYVSWFAYWGQGTTVTVSS
VL: B2 VL with G102C
B5: ABP100s.12.0 (antibody, V domains shown)
VH: B4 VH
VL: B2 VL with G102C
B6: 32G4-V8 x huSP34-v5 (N297A, K322A) (bispecific antibody, V domains shown)
VH: B1 VH
VL: B1 VL
notes: The name carries the substitutions N297A, K322A
B7: 32G4-V8-v5.1 (antibody, V domains shown)
VH: B1 VH with A113G
VL: B1 VL with E107T, I108V, K109L
B8: 47D10-V7 x huSP34-v5 (bispecific antibody, V domains shown)
VH: B1 VH
VL: B1 VL
notes: The name reads as 47D10-V7 arm x huSP34-v5 arm
B9: 47D10-V7-v5.1 (antibody, V domains shown)
VH: B1 VH with A113G
VL: B1 VL with E107T, I108V, K109L
B10: 47D10-V7 x huSP34-v5 (N297A, K322A) (bispecific antibody, V domains shown)
VH: B1 VH
VL: B1 VL
notes: as for B6
B11: 47D10-V7-v5.3 (antibody, V domains shown)
VH: B1 VH with S65K
VL: B1 VL with E107T, I108V, K109L
B12: 47D10-V7-v5.2 (antibody, V domains shown)
VH: B1 VH with Y62K
VL: B1 VL with E107T, I108V, K109L
B13: 47D10-V7-v5.4 (antibody, V domains shown)
VH: B1 VH with A63W
VL: B1 VL with E107T, I108V, K109L
B14: 32G4-V8-v5.3 (antibody, V domains shown)
VH: B1 VH with S65K
VL: B1 VL with E107T, I108V, K109L
B15: 32G4-V8-v5.4 (antibody, V domains shown)
VH: B1 VH with A63W
VL: B1 VL with E107T, I108V, K109L
B16: 32G4-V8-v5.2 (antibody, V domains shown)
VH: B1 VH with Y62K
VL: B1 VL with E107T, I108V, K109L
B17: ABP100s.10.6.4 (antibody, V domains shown)
VH: B1 VH with G44C, A63W
VL: B1 VL with G102C, E107T, I108V, K109L
B18: ABP100s.10.5.4 (antibody, V domains shown)
VH: B1 VH with G44C, A63W
VL: B1 VL with G102C, E107T, I108V, K109L
B19: ABP100s.10.5.2 (antibody, V domains shown)
VH: B1 VH with G44C, Y62K
VL: B1 VL with G102C, E107T, I108V, K109L
B20: ABP100s.10.6.3 (antibody, V domains shown)
VH: B1 VH with G44C, S65K
VL: B1 VL with G102C, E107T, I108V, K109L
B21: ABP100s.10.6.2 (antibody, V domains shown)
VH: B1 VH with G44C, Y62K
VL: B1 VL with G102C, E107T, I108V, K109L
B22: ABP100s.10.5.3 (antibody, V domains shown)
VH: B1 VH with G44C, S65K
VL: B1 VL with G102C, E107T, I108V, K109L
B23: ABP100s.14 (antibody, V domains shown)
VH: B1 VH with K19R, D68G, N79S, T80S, A81L
VL: B2 VL with R23G, F38V, P46F, T48G, Y51G, L69I, G71D, Y89F
B24: ABP100s.15 (antibody, V domains shown)
VH: B1 VH with Q13K, K19R, D68G, K78Q, N79S, T80S, A81L, K89R, T90A
VL: B2 VL with R23G, F38V, P46F, T48G, Y51G, L69I, G71D, Y89F
B25: ABP100s.17 (antibody, V domains shown)
VH: B1 VH with K19R, D68G, K78Q, N79S, T80S, A81L
VL: B2 VL with R23G, F38V, P46F, T48G, Y51G, R56K, P58S, G71D
B26: ABP100s.18 (antibody, V domains shown)
VH: B1 VH with K19R, D68G, N79S, T80S, A81L
VL: B2 VL with R23G, F38V, P46F, T48G, Y51G, R56K, P58S, G71D
B27: ABP100s.16 (antibody, V domains shown)
VH: B1 VH with Q13K, K19R, D68G, S77A, N79S, T80S, A81L, K89R, T90A
VL: B2 VL with R23G, F38V, P46F, T48G, Y51G, L69I, G71D, Y89F
B28: ABP100s.19 (antibody, V domains shown)
VH: B1 VH with Q13K, K19R, D68G, K78Q, N79S, T80S, A81L, K89R, T90A
VL: B2 VL with R23G, F38V, P46F, T48G, Y51G, R56K, P58S, G71D
B29: ABP100s.20 (antibody, V domains shown)
VH: B1 VH with Q13K, K19R, D68G, S77A, N79S, T80S, A81L, K89R, T90A
VL: B2 VL with R23G, F38V, P46F, T48G, Y51G, R56K, P58S, G71D
B30: VH2 (SEQ ID NO: 21) + VL6 (SEQ ID NO: 19) (antibody, V domains shown)
VH: B1 VH with P41S
VL: B1 VL
notes: Humanized SP34 anti-CD3 variant; the text around it speaks of full-length bispecific antibodies; The sample heated at 42° C. is the same molecule and is marked under assay; also called VH2 + VL6

Substitutions are numbered along the chain they refer to. Names and notes keep the numbering of the source.

In one experiment the target is T2, HuCD3E (Homo sapiens, UniProt P07766 23-126, limits assumed).
T2 construct: Recombinant analyte in SPR and antigen in ELISA; also called human CD3; human CD3 epsilon
T2 sequence (P07766 23-126 limits assumed): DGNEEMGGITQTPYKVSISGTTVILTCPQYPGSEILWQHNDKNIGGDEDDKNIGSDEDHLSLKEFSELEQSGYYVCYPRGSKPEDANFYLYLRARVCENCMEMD
Briefly: SPR, Biacore 8K; CD3 Affinity column: Hi. A general note: In SPR one partner is held on a chip, and binding of the other changes the refractive index at the surface.
What is called Kd is the concentration at which binding is half-saturated. The low end stands for higher affinity, the high end for lower affinity. For B1, the Kd is under 10 nM. B2 returned a Kd of under 10 nM. Regarding B3, the Kd was under 10 nM.

The molecule B4 displayed a Kd of under 10 nM. As to B5, the Kd is under 10 nM. Molecule B6 yielded a Kd of under 10 nM. Regarding B7, the Kd is under 10 nM.

B8 returned a Kd of under 10 nM.

The molecule B9 had a Kd of under 10 nM. On to B10, for which the Kd is under 10 nM.

The target of a further experiment is T2, HuCD3E. In words: SPR, Biacore 8K; CD3 Affinity column: Med; upper end of the range.
Molecule B11 yielded an equilibrium dissociation constant (Kd) of at most 100 nM. The molecule B12 returned a Kd of at most 100 nM.

Molecule B13 gave a Kd of at most 100 nM. Take B14: the Kd is at most 100 nM. For B15, the Kd was at most 100 nM. Still for that read-out and setting: the same measure for B16: at most 100 nM.

In another experiment the target is T2, HuCD3E. Briefly: SPR, Biacore 8K; CD3 Affinity column: Med; lower end of the range.
Molecule B17 yielded a Kd of at least 10 nM. Molecule B18 yielded a Kd of at least 10 nM. B19: the Kd is at least 10 nM.

Regarding B20, the Kd was at least 10 nM.

B21 yielded a Kd of at least 10 nM. Regarding B22, the Kd was at least 10 nM.

The next experiment deals with T2, HuCD3E. Described as above. This is another data set of the same source.
B11: the Kd is at least 10 nM.

As for B12, the Kd is at least 10 nM.

Consider B13, for which the Kd was at least 10 nM. Take B14: the Kd was at least 10 nM.

On to B15, for which the Kd is at least 10 nM. B16 returned a Kd of at least 10 nM.

The target in the next experiment is T2, HuCD3E. In words: SPR, Biacore 8K; CD3 Affinity column: Hi. This is another data set of the same source. The protocol: (§1) Initially, the affinity measurement of the anti-CD3 clones were determined using a Surface Plasmon Resonance (SPR) biosensor, Biacore 8K (GE Healthcare). The equilibrium dissociation constant (KD) was calculated from the ratio of kd over ka. To determine the contribution of a specific residue to antibody affinity and expression, paratope mapping was performed by screening of NNK libraries. In brief, the VH and VL of the parental antibody were searched by using NCBI Ig-Blast (www.ncbi.nlm.nih.gov/projects/igblast/) and CDRs were defined by the KABAT delineation system. All residues within CDRs were defined and mutated by NNK method. Each individual NNK library was generated per residue based on the FASEBA platform with a theoretical diversity at 20. The DNA encoding both heavy chain and light chain were inserted into a mammalian expression vector, transfected into CHO-S cells, and stable clones of highest expression were selected. Supernatants were collected from shaker flasks and purified on protein A affinity chromatography.
(§2) Affinity ranking. Binding between the parental and affinity-tuned bispecific antibodies and human and cyno target proteins (HER2 and CD3) was validated by ELISA, and a Biacore 8K was used to study the kinetics of the interaction between the antigen and the bispecific antibodies.
Consider B23, for which the Kd was under 10 nM. B24 displayed a Kd of under 10 nM.

The molecule B25 came in with a Kd of under 10 nM. In turn, B26 came in with a Kd of under 10 nM. With B27, the Kd was under 10 nM. In turn, B28 had a Kd of under 10 nM. With B29, the Kd is under 10 nM.

For another experiment, the target named is T1, CynoCD3E. In words: SPR, Biacore 8K; antibody captured, CD3E as analyte. The protocol: as §1, §2
The term koff denotes the first-order rate constant of dissociation. As usually defined, the kon is a measure of how fast the partners come together. For B30, the dissociation constant (Kd) stood at 1.7 nM, the koff turned out to be 0.000821 s⁻¹ and the kon is 483000 M⁻¹ s⁻¹.

The target in the next experiment is T2, HuCD3E. The description is as above. The protocol:
as §1, §2
Turning to B30, the affinity, expressed as Kd, was 1.01 nM; the koff was 0.000357 s⁻¹; the kon came out at 352000 M⁻¹ s⁻¹.

For a further experiment, the target named is T2, HuCD3E. In words: SPR, Biacore 8K; CD3 Affinity column: Med; upper end of the range. This is another data set of the same source. The procedure:
as §1, §2
The molecule B17 came in with a Kd of at most 100 nM. The same measure, in the same setting: the figure for B18 is at most 100 nM. Molecule B19 displayed a Kd of at most 100 nM.

Take B20: the Kd was at most 100 nM. B21 yielded a Kd of at most 100 nM. Molecule B22 displayed a Kd of at most 100 nM.
